A short description of data set [1]: Q-PCR normalised to EWS-FLI1 protein level. The following applies: control: mock treated SK-N-MC cells.
A short description of data set [2]: Western blot densitometry, antibody 7.3. To be noted: glycan lost; control: untreated SK-N-MC cells.

We go through 2 proteins from paper PMC4959569.

B1: EWS-FLI1: DON (protein)
parent chain: MASTDYSTYSQAAAQQGYSAYTAQPTQGYAQTTQAYGQQSYGTYGQPTDVSYTQAQTTATYGQTAYATSYGQPPTGYTTPTAPQAYSQPVQGYGTGAYDTTTATVTTTQASYAAQSAYGTQPAYPAYGQQPAATAPTRPQDGNKPTETSQPQSSTGGYNQPSLGYGQSNYSYPQVPGSYPMQPVTAPPSYPPTSYSSTQPTSYDQSSYSQQNTYGQPSSYGQQSSYGQQSSYGQQPPTSYPPQTGSYSQAPSQYSQQSSSYGQQSSFRQDHPSSMGVYGQESGGFSGPGENRSMSGPDNRGRGRGGFDRGGMSRGGRGGGRGGMGSAGERGGFNKPGGPMDEGPDLDLGPPVDPDEDSDNSAIYVQGLNDSVTLDDLADFFKQCGVVKMNKRTGQPMIHIYLDKETGKPKGDATVSYEDPPTAKAAVEWFDGKDFQGSKLKVSLARKKPPMNSMRGGLPPREGRGMPPPLRGGPGGPGGPGGPMGRMGGRGGDRGGFPPRGPRGSRGNPSGGGNVQHRAGDWQCPNPGCGNQNFAWRTECNQCKAPKPEGFLPPPFPPPGGDRGRGGPGGMRGGRGGLMDRGGPGGMFRGGRGGDRGGFRGGRGMDRGGFGGGRRGGPGGPPGPLMEQMGGRRGGRGGPGKMDKGEHRQERRDRPY
With B1, the “other: transcriptional repression of target gene” value in data set [1] (glycan lost) was “no change”. In addition, the “expression_or_secretion, percent_of_wt” value in data set [2] is “decreases”.

B2: EWS-FLI1: STZ (protein)
parent chain: MASTDYSTYSQAAAQQGYSAYTAQPTQGYAQTTQAYGQQSYGTYGQPTDVSYTQAQTTATYGQTAYATSYGQPPTGYTTPTAPQAYSQPVQGYGTGAYDTTTATVTTTQASYAAQSAYGTQPAYPAYGQQPAATAPTRPQDGNKPTETSQPQSSTGGYNQPSLGYGQSNYSYPQVPGSYPMQPVTAPPSYPPTSYSSTQPTSYDQSSYSQQNTYGQPSSYGQQSSYGQQSSYGQQPPTSYPPQTGSYSQAPSQYSQQSSSYGQQSSFRQDHPSSMGVYGQESGGFSGPGENRSMSGPDNRGRGRGGFDRGGMSRGGRGGGRGGMGSAGERGGFNKPGGPMDEGPDLDLGPPVDPDEDSDNSAIYVQGLNDSVTLDDLADFFKQCGVVKMNKRTGQPMIHIYLDKETGKPKGDATVSYEDPPTAKAAVEWFDGKDFQGSKLKVSLARKKPPMNSMRGGLPPREGRGMPPPLRGGPGGPGGPGGPMGRMGGRGGDRGGFPPRGPRGSRGNPSGGGNVQHRAGDWQCPNPGCGNQNFAWRTECNQCKAPKPEGFLPPPFPPPGGDRGRGGPGGMRGGRGGLMDRGGPGGMFRGGRGGDRGGFRGGRGMDRGGFGGGRRGGPGGPPGPLMEQMGGRRGGRGGPGKMDKGEHRQERRDRPY
Regarding B2, in data set [1] (glycan gained), the “other: transcriptional activation of target gene, fold_change” value is recorded as “no change” and the “other: transcriptional repression of target gene” value is given as “no change”.
